Test results as given in US20020160955A1.

Target: T1, IGF-I F49A (G1S-A70V background) displayed on phage (human; bacteriophage M13)
T1 chain: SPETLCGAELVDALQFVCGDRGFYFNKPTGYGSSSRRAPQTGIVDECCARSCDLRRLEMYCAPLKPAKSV
Experiment: competitive phage ELISA; IC50mut/IC50 G1S-A70V
Conditions: remark: other sources report otherwise

B1: human IGFBP-1, P08833 26-259 (protein, UniProt P08833 26-259, looked up)
chain: APWQCAPCSAEKLALCPPVSASCSEVTRSAGCGCCPMCALPLGAACGVATARCARGLSCRALPGEQQPLHALTRGQGACVQESDASAPHAAEAGSPESPESTEITEEELLDNFHLMAPSEEDHSILWDAISTYDGSKALHVTNIKKWKEPCRIELYRVVESLAKAQETSGEEISKFYLPNCNKNGFYHSRQCETSMDGEAGLCWCVYPWNGKRIPGSPEIRGDPNCQIYFNVQN
**Q.** With B1 as the binder, how does the relative IC50 read?
**A.** Its relative IC50 is > 100.
